How the values were obtained:
[1] = molecular target: T1, CAR with CD8α hinge as the spacer, expressed on Jurkat CAR-T cells; assay: flow cytometry (iQue) on Jurkat CAR-T cells, A647 anti-human IgG Fc detection
T1 construct: domain: CD8α hinge; also called CD8α hinge expressed on the Jurkat CAR-T cells
Method: mAbs were 1:3 serially diluted ranging from 100 nM to 1.7 pM and were incubated with cell mixture containing Jurkat CAR-T cells (unstained), Jurkat cells (CTV dye stained) and Sup-T1 cells (CSFE dye stained) in assay media (RPMI 1640+10% HI FBS+Pen/strep) for 1 hr at 37° C. […] Cells were then washed and analyzed by iQue screener (Intellicyt®). ForeCyt software was used for data analysis. The ratio of geomean of AF647 fluorescent signal from sample over the isotype control antibody (Signal) was used for the dose-dependent plot (FIGS. 2A-2F).

[2] = molecular target: T2, human CD8α on primary CD8+ T cells (human, UniProt P01732 22-235); assay: flow cytometry on PBMC, 2 µg/mL mAb, positive cells among EM CD8 T cells, Donor 2
T2 construct: Endogenous CD8 on T cells from PBMC; also called CD8+ primary T cells; human primary CD8+ cells
T2 sequence (P01732 22-235): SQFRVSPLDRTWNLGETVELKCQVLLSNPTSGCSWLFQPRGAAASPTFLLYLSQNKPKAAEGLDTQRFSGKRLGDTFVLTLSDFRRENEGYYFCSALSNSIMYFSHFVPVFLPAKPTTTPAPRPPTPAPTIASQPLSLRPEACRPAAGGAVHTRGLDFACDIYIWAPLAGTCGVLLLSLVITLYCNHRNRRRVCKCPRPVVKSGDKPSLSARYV
Method: (§1) Frozen PBMCs were thawed and resuspended in FACS buffer (PBS+2% FBS). Cells were then incubated with Fc block for 15 min at 4 C prior to incubation with 2 μg/mL of each CD8α hinge binders at room temperature for 45 min. […] After staining, cells were washed with FACS buffer twice and resuspended in 100 μl PBS containing DAPI for acquisition. Cells were first gated on FSC/SSC, followed by live cell gating (DAPI negative cells) followed by singlet gating. CD3 T cells were identified using FSC versus CD3 dot plot. Within the CD3 T cells, CD4 and CD8 T cells were gated. Naïve, Effector, EM and CM cells were identified within the CD8 T cells using CD45RA and CD27 dot plot. Within each of the cell types, the secondary only control was used to set the gates to identify the positive stained population. The percentage of positive cells in CD8+ T cell population with binding to CD8α hinge binders were quantified and summarized in Table 13.

[3] = molecular target: T2, human CD8α on primary CD8+ T cells; assay: flow cytometry on PBMC, 2 µg/mL mAb, positive cells among CD8+ T cells, Donor 2
Method: as §1

[4] = molecular target: T2, human CD8α on primary CD8+ T cells; assay: flow cytometry on PBMC, 2 µg/mL mAb, positive cells among EM CD8 T cells, Donor 1
Method: as §1

[5] = molecular target: T2, human CD8α on primary CD8+ T cells; assay: flow cytometry on PBMC, 2 µg/mL mAb, positive cells among CD8+ T cells, Donor 1
Method: as §1

[6] = molecular target: T2, human CD8α on primary CD8+ T cells; assay: flow cytometry on PBMC, 2 µg/mL mAb, positive cells among EMRA CD8 T cells, Donor 2
Method: as §1

[7] = molecular target: T2, human CD8α on primary CD8+ T cells; assay: flow cytometry on PBMC, 2 µg/mL mAb, positive cells among EMRA CD8 T cells, Donor 1
Method: as §1

[8] = molecular target: T3, soluble CAR extracellular domain (ECD) containing scFv and CD8α hinge (UniProt P01732 138-182, biotinylated); assay: BLI (OctetRed384), GC5W48-Btn (biotinylated CAR ECD) loaded on streptavidin tip, mAb in solution; first of two table rows; column head 'kdis (1/s)'
T3 construct: domain: CD8α hinge; also called soluble CAR ECD; CAR ECD
T3 sequence (P01732 138-182): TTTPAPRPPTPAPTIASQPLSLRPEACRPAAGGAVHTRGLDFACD
Method: (§2) To determine the binding affinity and kinetics of mAbs to CD8α hinge, soluble CAR extracellular domains (ECD) containing scFv and CD8α hinge was generated for Bio-layer interferometry (BLI) analysis using OctetRed384 (Sartorius). The CAR ECD was biotinylated and loaded to streptavidin sensor tip. Then mAbs were associated to the sensor and followed by disassociation in the assay buffer. Data was analyzed by Octet software (Sartorius).

[9] = molecular target: T3, soluble CAR extracellular domain (ECD) …; assay: BLI (OctetRed384), biotinylated CAR ECD on streptavidin tips; the cell stands under the head 'ka (1/Ms)' but the text gives 1.83 nM as the affinity (heads shifted)
Method: as §2

[10] = molecular target: T3, soluble CAR extracellular domain (ECD) …; assay: BLI (OctetRed384), GC5W48-Btn loaded on streptavidin tip; row 'average'; the sheet puts this number under 'kdis (1/s)', Table 14 of the text under 'KD (M)'
Method: as §2

[11] = molecular target: T3, soluble CAR extracellular domain (ECD) …; assay: BLI (OctetRed384), biotinylated CAR ECD on streptavidin tips; the cell stands under the head 'kd (1/s)' (heads shifted)
Method: as §2

[12] = molecular target: T3, soluble CAR extracellular domain (ECD) …; assay: BLI (OctetRed384), GC5W48-Btn (biotinylated CAR ECD) loaded on streptavidin tip, mAb in solution; second of two table rows; column head 'kdis (1/s)'
Method: as §2

[13] = molecular target: T3, soluble CAR extracellular domain (ECD) …; assay: BLI (OctetRed384), GC5W48-Btn (biotinylated CAR ECD) loaded on streptavidin tip, mAb in solution; second of two table rows
Method: as §2

[14] = molecular target: T3, soluble CAR extracellular domain (ECD) …; assay: BLI (OctetRed384), GC5W48-Btn (biotinylated CAR ECD) loaded on streptavidin tip, mAb in solution; first of two table rows
Method: as §2

[15] = molecular target: T3, soluble CAR extracellular domain (ECD) …; assay: BLI (OctetRed384), biotinylated CAR ECD on streptavidin tips; the cell stands under the head 'KD (M)' (heads shifted)
Method: as §2

[16] = molecular target: T3, soluble CAR extracellular domain (ECD) …; assay: BLI (OctetRed384), GC5W48-Btn loaded on streptavidin tip; row 'average'; the sheet puts this number under 'kon (1/Ms)', Table 14 of the text under 'kd (1/s)'
Method: as §2

T1 sequence (P01732 138-182): as above

| Binder | EC50 [1] [nM] | Binding+ in EM (%) [2] [%] | Binding in CD8+ cells (%) [3] [%] | Binding+ in EM (%) [4] [%] | Binding in CD8+ cells (%) [5] [%] | Binding+ in EMRA (%) [6] [%] | Binding+ in EMRA (%) [7] [%] | koff [8] [s⁻¹] | Kd [9] [nM] | koff [10] [s⁻¹] | kon [11] [M⁻¹ s⁻¹] | koff [12] [s⁻¹] | Kd [13] [nM] | kon [13] [M⁻¹ s⁻¹] | Kd [14] [nM] | kon [14] [M⁻¹ s⁻¹] | koff [15] [s⁻¹] | kon [16] [M⁻¹ s⁻¹] |
| --- | --- | --- | --- | --- | --- | --- | --- | --- | --- | --- | --- | --- | --- | --- | --- | --- | --- | --- |
| CD8B617 (antibody, human IgG1, kappa, Mouse variable regions on human IgG1 / human kappa constant regions) heavy: not shown light: DIQMTQSPLTLSVTIGQPASISCKSSQSLLDSDGETYLNWLLQRPGQSPKRLIYLVSKLDSGVPDRFTGSGSGTDFTLKISRVEAEDLGVYYCWQGTHFPLTFGGGTKLEIKRTVAAPSVFIFPPSDEQLKSGTASVVCLLNNFYPREAKVQWKVDNALQSGNSQESVTEQDSKDSTYSLSSTLTLSKADYEKHKVYACEVTHQGLSSPVTKSFNRGEC | 23.7 | 89.1 | 97.8 | 86.2 | 88.5 | 97.3 | 90.3 | – | – | – | – | – | – | – | – | – | – | – |
| CD8B575 (antibody, human IgG1, kappa, V domains shown, Mouse variable regions on human IgG1 / human kappa constant regions, made in CHO cells; also called AF647-CD8B575) VH: QVQLQQSGGGLVQPGGSLKLSCAASGFTFSNYYMSWARQTPEKRLEWVAYISNDGDATYYPDSVKGRFTISRDNAKNTLYLQMSSLKSEDTAMYYCTREDYYSDYWFASWGQGTTVTVSS VL: DIVMTQSQKFMSTTIEDRVSITCKASQNVGTAVAWYQQKPGQSPKLLIYSTSNRYTGVPDRFTGSGSGTDFTLTISNIQSEDLADYFCQQYSSYPLTFGGGTKLEIKR | 32.6 | 77.9 | 96.4 | 69.5 | 84.4 | 92.8 | 81.3 | 0.000179 | 1.83 | 0.000128 | 68000 | 7.72e-05 | 1.65 | 46800 | 2.01 | 89100 | 0.000128 | 68000 |
| CD8B622 (antibody, human IgG1, kappa, Mouse variable regions on human IgG1 / human kappa constant regions; also called CD8B622.001) heavy: not shown light: DIVMTQTPLSLPVSLGDQASISCRSSQNIVHSNGNTYLEWYLQKPGQSPKLLIYRVSKRFSGVPDRFSGSGSGTDFTLKITRVEAEDLGVYYCFQGSHVPWTFGGGTKLEIKRTVAAPSVFIFPPSDEQLKSGTASVVCLLNNFYPREAKVQWKVDNALQSGNSQESVTEQDSKDSTYSLSSTLTLSKADYEKHKVYACEVTHQGLSSPVTKSFNRGEC | 37 | 50.3 | 16.7 | 50.4 | 63.1 | 4.25 | 60.6 | – | – | – | – | – | – | – | – | – | – | – |

The remaining lines, values ahead:

| EC50 [1] [nM] | Binding+ in EM (%) [2] [%] | Binding in CD8+ cells (%) [3] [%] | Binding+ in EM (%) [4] [%] | Binding in CD8+ cells (%) [5] [%] | Binding+ in EMRA (%) [6] [%] | Binding+ in EMRA (%) [7] [%] | koff [8] [s⁻¹] | Kd [9] [nM] | koff [10] [s⁻¹] | kon [11] [M⁻¹ s⁻¹] | koff [12] [s⁻¹] | Kd [13] [nM] | kon [13] [M⁻¹ s⁻¹] | Kd [14] [nM] | kon [14] [M⁻¹ s⁻¹] | koff [15] [s⁻¹] | kon [16] [M⁻¹ s⁻¹] | Binder |
| --- | --- | --- | --- | --- | --- | --- | --- | --- | --- | --- | --- | --- | --- | --- | --- | --- | --- | --- |
| 21.6 | 91.5 | 98.2 | 88.5 | 88.8 | 97.8 | 91 | – | – | – | – | – | – | – | – | – | – | – | CD8B611 (antibody, human IgG1, kappa, V domains shown, Mouse variable regions on human IgG1 / human kappa constant regions) VH: EVQLQQSGAELVRPGASVNLSCTASGFNFKDDYMHWVKQRPEQGLEWIGWIDPENGDAAYASKFQGKATITADTSSNTAYLQLSSLTSEDTAVYYCITIFRSYWGQGTTLTVSS VL: not shown |
| 24.7 | 87.4 | 97.7 | 82.8 | 87.5 | 97.1 | 87.9 | – | – | – | – | – | – | – | – | – | – | – | CD8B607 (antibody, human IgG1, kappa, Mouse variable regions on human IgG1 / human kappa constant regions) heavy: not shown light: DIQMTQTPLTLSVTIGQPASISCKSSQSLLDSDGETYLNWLLQRPGQSPKRLIYLVSKLDSGVPDRFTGSGSGTDFTLKISRVEAEDLGVYYCWQGTHFPLTFGGGTKLEIKRTVAAPSVFIFPPSDEQLKSGTASVVCLLNNFYPREAKVQWKVDNALQSGNSQESVTEQDSKDSTYSLSSTLTLSKADYEKHKVYACEVTHQGLSSPVTKSFNRGEC |
| 1.9 | 75.9 | 28.1 | 70.5 | 73.8 | 8.76 | 72 | – | – | – | – | – | – | – | – | – | – | – | CD8B613 (antibody, human IgG1, kappa, Mouse variable regions on human IgG1 / human kappa constant regions) heavy: not shown light: DVQMIQSPLSLPVSLGDQASISCRSSQNIVHSNGNTYLEWYLQKPGQSPKLLIYRVSKRFSGVPDRFSGSGSGTDFTLKITRVEAEDLGVYYCFQGSHVPWTFGGGTKLEIKRTVAAPSVFIFPPSDEQLKSGTASVVCLLNNFYPREAKVQWKVDNALQSGNSQESVTEQDSKDSTYSLSSTLTLSKADYEKHKVYACEVTHQGLSSPVTKSFNRGEC |
| 7.8 | 60.6 | 19.5 | 56.5 | 65.3 | 5.38 | 63.3 | – | – | – | – | – | – | – | – | – | – | – | CD8B623 (antibody, human IgG1, kappa, Mouse variable regions on human IgG1 / human kappa constant regions) heavy: not shown light: DVVMTQTPLSLPVSLGDQASISCRSSQNIVHSNGNTYLEWYLQKPGQSPKLLIYRVSKRFSGVPDRFSGSGSGTDFTLKITRVEAEDLGVYYCFQGSHVPWTFGGGTKLEIKRTVAAPSVFIFPPSDEQLKSGTASVVCLLNNFYPREAKVQWKVDNALQSGNSQESVTEQDSKDSTYSLSSTLTLSKADYEKHKVYACEVTHQGLSSPVTKSFNRGEC |

Source: patent US20230174651A1 (Janssen / Centocor, published 2023)
